Article PMC9870165

Tests used:
[1] = biological target: ZIKV E protein on wild-type Zika virus H/PF/2013 in culture supernatant (Zika virus (strain H/PF/2013)); assay: ELISA; ZIKV capture ELISA: virus in culture supernatant captured by plate-bound mAb 4G2; serially diluted Fabs added 1 h at 37°C; anti-human Fab alkaline phosphatase; EC50 from titration
[2] = biological target: recombinant ZIKV E protein (ectodomain of Zika virus envelope glycoprotein E) (Zika virus); assay: crystal structure; recombinant ZIKV E and G9E Fab mixed 1:1.2 at room temperature for 30 min, complex purified on Superdex 200-increase; crystals in 100 mM HEPES pH 7.5, 10% (w/v) PEG 8000; 3.4 Å

“G9E-S2 Fab (paratope mutant D57S, Q58A, K76S)” gave a fold reduction in binding compared to WT G9E [1] of 10 fold.
With “recombinant ZIKV E protein (ectodomain of Zika virus envelope glycoprotein E) (domain or fragment)” the stoichiometry N [2] was 2.
“G9E-S1/2 Fab (paratope mutant D53A, D54A, D57S, Q58A, K76S)” showed a fold weaker binding than G9E-S2 [1] of 30 fold.
